Measured values: patent publication US7537762B2, “Human monoclonal antibodies to activin receptor-like kinase-1” (Amgen Fremont, Inc., priority 2005, dated 2009)

Columns and labels:
[1] = molecular target: T1, Recombinant human ALK-1/FC chimera (Homo sapiens, UniProt P37023); experiment: BIACORE cross-competition / epitope binning; format: binding; conditions: panel of 14 antibodies, 50 nM, primary/secondary injections
T1 construct: purchased R&D Systems, Inc. 370-AL; host or cells: mouse myeloma cell line
Method: Cross-competition experiments were performed using the BIACORE® 3000 instrument (Biacore International AB, Uppsala, Sweden and Piscataway, N.J.), following the manufacturer's protocols.
Recombinant human ALK-1/FC chimera was immobilized onto the dextran layer of a CM5 biosensor chip using amine coupling. Chips were prepared using 10 mM acetate buffer pH 5.0 as the immobilization buffer and a protein density of 940 RU was achieved. Deactivation of unreacted N-hydroxysuccinimide esters was performed using 1 M ethanolamine hydrochloride, pH 8.5.
Purified mAbs were diluted to a concentration of 50 nM in HBS-EP running buffer (0.01 M HEPES pH 7.4, 0.15 M NaCl, 3 mM EDTA, 0.005% Polysorbate 20). A primary antibody was chosen and then injected across the flow cell for 600 seconds at a rate of 10 μL/min. After the injection was complete, a secondary antibody was chosen and injected across the same flow cell for 600 seconds at a rate of 10 μL/min. The sensor surface was regenerated by a 12 second injection of 100 mM H3PO4 (25 μL/min).
After regeneration, the primary antibody was again injected across the flow cell for 600 seconds at a rate of 10 μL/min. […] Threshold values were determined by using the same antibody as both the primary antibody and secondary antibody. […]

[2] = molecular target: T2, recombinant human ALK-1/Fc fusion protein (hALK-1/Fc) (Homo sapiens, UniProt P37023); experiment: Avidity by surface plasmon resonance (BIACORE), immobilized hALK-1/Fc; format: binding; conditions: SPR, dissociation monitored 10 minutes
T2 construct: purchased R&D Systems, Inc. 370-AL; host or cells: mouse myeloma cell line
Method: Avidity measures of purified anti-ALK-1 antibodies by surface plasmon resonance using the BIACORE® 3000 instrument were performed as follows using the manufacturer's protocols.
To perform kinetic analyses, recombinant human ALK-1/Fc fusion protein (hALK-1/Fc) and cynomologus ALK-1/Fc fusion protein (cALK-1/Fc) were immobilized on separate flow cells of a CM5 BIAcore sensor chip using routine amine coupling. […] Deactivation of unreacted N-hydroxysuccinimide esters was performed using 1 M ethanolamine hydrochloride, pH 8.5. Antibody samples in running buffer were prepared at concentrations ranging from 0.125 to 2 nM (a 0 nM solution comprising running buffer alone was included as a zero reference). Samples were randomized and injected in duplicate for 10 minutes each across all 4 flow cells using HBS-EP (10 mM HEPES pH 7.4, 150 mM NaCl, 3 mM EDTA, 0.005% Surfactant P20) as running buffer. […] A flow rate of 25 μL/min was used to determine avidity values. The dissociation of the antibody was monitored for 10 minutes, the surface regenerated by a 12 second injection of 100 mM H3PO4 (25 μL/min). The raw data were processed using the Scrubber (©BioLogic Software) software package and analyzed using the CLAMP (©BioLogic Software) software package. […]

[3] = molecular target: T3, monomeric ALK-ECD (Homo sapiens, UniProt P37023); experiment: Affinity constants of representative mAbs by SPR (BIACORE), Example 8; format: binding; conditions: mAb immobilized (200-400 RU), monomeric ALK-ECD 3.125-400 nM, different ECD preparation than Example 7
T3 construct: made in house; host or cells: 293T cells, transient, secreted (pSecTag2/Hygro)
Method: Affinity measures (KD and koff) of purified anti-ALK-1 antibodies by surface plasmon resonance using the BIACORE® 3000 instrument were performed as follows using the manufacturer's protocols.
To perform kinetic analyses, affinity-purified mAbs were immobilized onto the dextran layer of a CM5 biosensor chip using amine coupling. Surfaces were prepared using 10 mM acetate buffer pH 5.0 as the immobilization buffer and protein densities of 200-400 RU were achieved. Deactivation of unreacted N-hydroxysuccinimide esters was performed using 1 M ethanolamine hydrochloride, pH 8.5. Samples of monomeric ALK-ECD in running buffer were prepared at concentrations ranging from 3.125-400 nM (a 0 nM solution comprising running buffer alone was included as a zero reference). Samples were randomized and injected in duplicate for 2 minutes each across all 4 flow cells using HBS-EP (10 mM HEPES pH 7.4, 150 mM NaCl, 3 mM EDTA, 0.005% Surfactant P20) as running buffer. […] Dissociation of monomeric ALK-ECD was monitored for 10 minutes, the surface regenerated by a 12 second injection of 100 mM H3PO4 (25 μL/min). The raw data were processed using the Scrubber (©BioLogic Software) software package and analyzed using the CLAMP (©BioLogic Software) software package. The data were fit globally to a simple 1:1 Langmuir binding model.

[4] = system: human vessels (human CD-31); experiment: Collagen model in human foreskin-SCID chimera mice, human CD-31 staining; format: in vivo, human foreskin-SCID chimera mouse; conditions: 3.0 mg/ml Collagen, no HMVEC, 100 μg/ml id. injection
Description: Upon arrival from National Disease Research Institute and Cooperative Human Tissue Network, human foreskin pieces were trimmed of unhealthy regions and transferred to RPMI media (CELLGRO®/Mediatech, Cat# MT-15-040-CV supplemented with Penicillin and Streptamycin (GIBCO®/Life Tech, Cat# 15070-063) (add 5 mLs of the pen/strep stock solution into 500 mLs of RPMI). Using a scalpel and cutting in sterile petri dish, the skins were trimmed to an oval shape of approximately 8×13 mm cleaning any ragged ends and connective tissues, and stored on wet ice prior to surgery. The appropriate volume (4 μL/gram of animal) of 100 mg/mL (KeTASET®(ketamine), Fort Dodge Animal Health)/1 mg/mL medetomidine (Pfizer Animal Health-DORMITOR®(medetomidine)) solution was intraperitoneally injected into scid mouse abdomen (i.e., at a 45° angle, under skin but not too deep internally). Once anesthetized, the mice were applied with eye lubricant, a subcutaneuosly injection of Ketoprofen (10 mg/kg, Fort Dodge Animal Health) and hair was shaved over the site of the surgery. […] Complete healing occurred between 21-28 days after which time skins were ready to be inoculated with tumor cells.

B1: 1.11.1: human anti-ALK-1 monoclonal antibody; VH SEQ ID NO: 10, VL SEQ ID NO: 12 (antibody, V domains shown)
VH: QVQLVESGGGVVQPGRSLRLSCAASGFTFSSHGMYWVRQAPGKGLEWVAAIWYDGSNKYYADSVKGRFTISRDNSKNTLYLQMNSLRAEDTAVYYCARDQEQWPDVFDIWGQGTMVTVSS
VL: DIQMTQSPSSLSASVGDRVTITCRASQGIRNYLAWFQQKPGKAPKSLIYGASSLQSGVPSKFSGSGSGTDFTLTISSLQPEDFATYYCQQYNSYPLTFGGGTKVEIK
modifications: Human
epitope bin [1]: in one bin

B2: 1.162.1: human anti-ALK-1 monoclonal antibody; VH SEQ ID NO: 26, VL SEQ ID NO: 28 (antibody, V domains shown)
VH: QVQLQESGPGLVKPSQTLSLICTVSGGSISSGEYYWSWIRQHPGKGLEWIGYIYYSGSTYYNPSLKSRLTISVDTSKNQFSLKLSSVTAADTAVYYCAREGIGAFDIWGQGTMVTVSS
VL: EIVLTQSPGTLSLSPGERATLSCRASQSVSSSYLAWYQQKPGQAPRLLIYGASSRATGIPDRFSGSGSGTDFTLTIIRLDPEDFAVYYCQRYGSSPITFGQGTRLEIK
modifications: Human
hALK-1/Fc koff [2]: 1.1e-05 s⁻¹

B3: 4.72.1: human anti-ALK-1 monoclonal antibody; VH SEQ ID NO: 66, VL SEQ ID NO: 68 (antibody, V domains shown)
VH: QVQLQESGPGLVKPSQTLSLTCTVSGGSISSGEYYWSWIRQHPGKGLEWIGYIFYSGSTYYNPSLKSRVTISLDTSKNQFSLKLSSVTAADTAVYYCARESTDGMDVWGQGTTVTVSS
VL: EIVLTQSPGTLSLSPGERATLSCRASQSVSSSYLAWYQRKPGQAPRLLIYGVSSRATGIPDRFSGSGSGTDFTLTISRLEPEDFAVYYCQQYGSSMITFGQGTRLEIK
modifications: Human
off-rate [3]: 2.5e-05 s⁻¹
on-rate [3]: 32000 M⁻¹ s⁻¹

B4: 1.14.1: human anti-ALK-1 monoclonal antibody; VH SEQ ID NO: 18, VL SEQ ID NO: 20 (antibody, V domains shown)
VH: QVQLQESGPGLVKPSETLSLTCTVSGGSVSSGDYYWNWIRQPPGKGLEWIGYIYYSGSTNYNPSLKSRVTISVDTSKNQFSLKLSSVTAADTAVYYCAREAVSAFDYWGQGTLVTVSS
VL: EIVLTQSPGTLSLSPGERATLSCRASQSVSSTYLAWHQQKPGQAPRLLIYGVSSRASGVPDRFSGSGSGTDFTLTISRLEPEDFAVYYCQQYGSSPITFGQGTRLEIK
modifications: Human
Human vessel scoring ([4]; 4 days of Rx): 44 ± 28 1 × 10^3
% of Control (human vessels) ([4]; 4 days, control = isotype control antibody): 59%
